According to patent US8367615B2, “Stimulation of neuron regeneration by secretory leukocyte protease inhibitor” (Research Foundation of City University of New York, priority 2006, dated 2013):

Key:
DRG neurons = experiment: Microarray analysis of gene expression in DRG neurons; type: cell-based; conditions: DRG neurons that received dbcAMP
Excerpt: The effects of cAMP were the result of its ability to induce gene transcription.

older neurons = conditions: cAMP levels elevated by treatment, previously established (WO 01/85981); cited from earlier work
[1] = tested on: transected nerve fibers in the spinal cord; conditions: in vivo injection; previously established (WO 01/85981); cited from earlier work
[2] = tested on: dorsal root ganglia (DRG) neurons; experiment: Neurite outgrowth of DRG neurons on MAG-expressing CHO cell monolayers; type: cell-based, rat
Procedure: FIGS. 1A and 1B are a panel of four photographs and a bar graph, respectively, showing that SLPI reverses inhibition by MAG for dorsal root ganglia (“DRG”) neurons. DRG neurons from post-natal day 6 rats were treated with 2, 5, or 10 μg/ml SLPI, plated onto monolayers of either control or MAG-expressing Chinese hamster ovary (“CHO”) cells, and incubated for 16 hours. Neurons were stained for βIII tubulin and neurite length was quantified using the METAMORPH image analysis software. Data are presented ±SEM.

cortical neurons = experiment: Neurite outgrowth of cortical neurons on central nervous system myelin; type: cell-based; conditions: 5 and 10 μg/ml, post-natal day 1 rat cortical neurons on CNS myelin
Procedure: FIGS. 2A and 2B are a panel of four photographs and a bar graph, respectively, showing that SLPI enhances neurite outgrowth on myelin for cortical neurons. Cortical neurons from post-natal day 1 rats were treated with 1 mM dibutyrl cAMP (dbcAMP) and 5 or 10 μg/ml SLPI, and plated onto 8-well chamber slides coated with central nervous system myelin (1 μg per well). Neurons were incubated for 24 hours and immunostained for βIII tubulin. The bar graph depicts average neurite length ±SEM.
Unlike DRG neurons, cortical neurons were inhibited by MAG and myelin at post-natal day 1.

adult DRG neurons = experiment: In vivo intrathecal delivery, then neurite outgrowth of adult DRG neurons on MAG-expressing CHO cells; parameters: species or system rat; conditions: 2 and 5 μg/kg/hr intrathecal for 24 hours in adult rats, neurons plated on MAG-expressing CHO cells
Procedure: FIGS. 3A and 3B are a panel of four photographs and a bar graph, respectively, showing that in vivo delivery of SLPI overcomes MAG inhibition for adult DRG neurons. DRG neurons from adult rats that received infusion of 1, 2, or 5 μg/kg/hr SLPI into the spinal cord for 24 hours were plated onto control or MAG-expressing CHO cells. Neurons were incubated for 16 hours and stained for βIII tubulin. The bar graph depicts average neurite length ±SEM.
SLPI was delivered to the spinal cord by a pump.

optic nerve = experiment: Optic nerve crush, GAP-43 staining of regenerating axons; type: in vivo, rat; conditions: single intravitreal injection of 10 micrograms after optic nerve crush; two weeks; adult male Fischer rats
Procedure: SLPI's ability to promote axonal regeneration in vivo in the optic nerve was investigated. Adult male Fischer rats (200-300 g, Charles River Laboratories) were anesthetized with isofluorane and placed in a stereotaxic frame. Optic nerve crush was performed as follows. The right optic nerve was exposed and the meninges were removed. The nerve was then crushed for 10 seconds with fine forceps at a distance of 2 mm behind the eye. Special care was taken to avoid injury to the opthalmic artery. After closing the incision, the animal received a single intravitreal injection of either 5 microliters sterile saline or 10 micrograms of recombinant human SLPI (R&D Systems; 2 micrograms/microliter in 5 microliters sterile saline) in the right eye. After a two-week post-surgical survival period, the animals were sacrificed by transcardial perfusion with 4% paraformaldehyde and the optic nerves were dissected. Nerves were sectioned at a thickness of 20 microns and thaw-mounted onto gelatin-coated slides. Sections were immunostained for GAP-43 using a polyclonal sheep anti-GAP-43 antibody diluted 1:1000 in a solution of 5% rabbit serum, 2% BSA, and 0.1% Tween in Tris-buffered saline (TBS). […] Slides were coverslipped with Permafluor mounting medium (Thermo) and viewed under fluorescence. […]

[3] = Tolerability on administration to live animals; type: in vivo

| Molecule | expression of SLPI (DRG neurons) | inhibition by MAG and myelin of nerve fiber growth (older neurons) | regeneration of transected nerve fibers in the spinal cord [1] | neurite outgrowth on MAG, most effective concentrations ([2]; 5 and 10 μg/ml, post-natal day 6 rat DRG neurons on MAG-expressing CHO cells) | neurite outgrowth on MAG ([2]; post-natal day 6 rat DRG neurons treated with 2, 5 or 10 μg/ml, on MAG-expressing CHO cells, 16 hours) | neurite outgrowth on myelin, effect compared with 1 mM dbcAMP (cortical neurons) | neurite outgrowth on myelin (cortical neurons; 24 hours) | MAG inhibition of DRG neurons after intrathecal delivery (adult DRG neurons) | neurite outgrowth after intrathecal delivery (adult DRG neurons; 16 hours) | GAP-43 positive axons in the crushed optic nerve (optic nerve) | axons extending beyond the lesion site (optic nerve) | toxicity when administered to live animals [3] |
| --- | --- | --- | --- | --- | --- | --- | --- | --- | --- | --- | --- | --- |
| CCCC(=O)Nc1ncnc2c1ncn2[C@@H]1O[C@@H]2COP(=O)(O)O[C@H]2[C@H]1OC(=O)CCC [dbcAMP, dibutyrl cAMP] | greatly increased | inhibition was reversed | led to regeneration | – | – | – | – | – | – | – | – | – |
| secretory leukocyte protease inhibitor (protein, UniProt P03973 26-132, looked up) Antileukoproteinase: SGKSFKAGVCPPKKSAQCLRYKKPECQSDWQCPGKKRCCPDTCGIKCLDPVDTPNPTRRKPGKCPVTYGQCLMLNPPNFCEMDGQCKRDLKCCMGMCGKSCVSPVKA | – | – | – | most extensive growth | significantly increased | equivalent to that seen with dibutyryl AMP (dbcAMP) | significantly increased | blocks MAG inhibition | significant increases | numerous GAP-43 positive axons | several of them extend beyond the lesion site | non-toxic |
